Test results published in patent US20140336130A1 (PHIGENIX, INC., priority 2011, published 2014).

Assays:
Type in all cases: cell-based, human
[1] = test system: PC3; assay: Pan-caspase detection (FAM-VAD-FMK, confocal), PC3; conditions: DEFB1 (hBD-1) induction 24 h
Protocol: (§1) Detection of caspase activity in the prostate cancer cell lines was performed using APO LOGIX™ Carboxyfluorescin Caspase detection kit (Cell Technology, Mountain View, Calif.). Active caspases were detected through the use of a FAM-VAD-FMK inhibitor that irreversibly binds to active caspases. […] Next, 10 μl of a 30× working dilution of carboxyfluorescein labeled peptide fluoromethyl ketone (FAM-VAD-FMK) was added to 300 μl of media and added to each 35 mm dish. Cells were then incubated for 1 hour at 37° C. under 5% CO2. Then, the medium was aspirated and the cells were washed twice with 2 ml of a 1× Working dilution Wash Buffer. Cells were viewed under differential interference contrast (DIC) or under laser excitation at 488 nm. The fluorescent signal was analyzed using a confocal microscope (Zeiss LSM 5 Pascal) and a 63×DIC oil lens with a Vario 2 RGB Laser Scanning Module.
(§2) Detection of caspase activity in the prostate cancer cell lines was performed s described in Example 1.
(§3) Detection of caspase activity in the prostate cancer cell lines was performeds described in Example 1.
(§4) Detection of caspase activity in the prostate cancer cell lines was performed as described in Example 1.

[2] = test system: PC3; assay: Flow cytometry Annexin V-FITC/PI, PC3
Protocol: The remaining attached cells were harvested by trypsinization and combined with the detached cells and PBS. The cells were then pelleted at 4° C. (500×g) for 5 min, washed twice in PBS, and resuspended in 100 μl of 1× Annexin binding buffer (0.1 M Hepes/NaOH at pH 7.4, 1.4 M NaCl, 25 mM CaCl2) containing 5 μl of Annexin V-FITC and 5 μl of PI. The cells were incubated at RT for 15 min in the dark, then diluted with 400 μl of 1× Annexin binding buffer and analyzed by FACscan (Becton Dickinson, San Jose, Calif.). All reactions were performed three times.

[3] = test system: LNCaP; assay: MTT cell viability assay, LNCaP; conditions: DEFB1 (hBD-1) induced with 10 μM PonA, 24-72 h
Protocol: Reactions were performed three times in triplicate.
DU145, PC3 and LNCaP cells […] were transfected with 0.5 μg of the PAX2 siRNA pool or control siRNA pool using Codebreaker transfection reagent according to the manufacturer's protocol (Promega). Next, cell suspensions were diluted and seeded onto a 96-well plate at 1-5×10^3 cells per well and allowed to grow for 2-, 4- or 6 days. After culture, cell viability was determined by measuring the conversion of 3-[4,5-dimethylthiazol-2yl]-2,5 diphenyl tetrazolium bromide, MTT (Promega), to a colored formazan product. Absorbance was read at 540 nm on a scanning multiwell spectrophotometer.
(§5) To examine the effects of hBD-1 on cell growth, metabolic 3-[4,5-dimethylthiazol-2yl]-2,5-diphenyl tetrazolium bromide (MTT) assay was performed. DU145, LNCaP, PC3 and PC3/AR+ cells co-transfected with pvgRXR plasmid and pIND/hBD-1 construct or control pvgRXR plasmid were seeded onto a 96-well plate at 1-5×10^3 cells per well. Twenty-four hours after seeding, fresh growth medium was added containing 10 μM Pon A daily to induce hBD-1 expression for 24, 48 and 72 h after which the MTT assay was performed according to the manufacturer's instructions (Promega). Reactions were performed three times in triplicate.
MTT cytotoxicity assay was performed as described in Example 1.

[4] = test system: PC3; assay: Phase contrast microscopy of cell growth, PC3; conditions: DEFB1 induction 48 h
Protocol: (§6) Cell morphology was analyzed by phase contrast microscopy. […] The following day plasmid-containing cells were induced for a period of 48 h with media containing 10 μM Ponasterone A, while control cells received fresh media. The cells were then viewed under an inverted Zeiss IM 35 microscope (Carl Zeiss, Germany). Phase contrast pictures of a field of cells were obtained using the SPOT Insight Mosaic 4.2 camera (Diagnostic Instruments, USA). Cells were examined by phase contrast microscopy under 32× magnification and digital images were stored as uncompressed TIFF files and exported into Photoshop CS software (Adobe Systems, San Jose, Calif.) for image processing and hard copy presentation.
(§7) The effect of PAX2 knock-down on cell growth was analyzed by phase contrast microscopy as described in Example 1.
(§8) The effect of PAX2 knockdown on cell number was analyzed by phase contrast microscopy as described in Example 1.

[5] = test system: LNCaP; assay: Phase contrast microscopy of cell growth, LNCaP; conditions: DEFB1 induction 48 h
Protocol: as §6, §7, §8

[6] = test system: LNCaP; assay: Pan-caspase detection (FAM-VAD-FMK, confocal), LNCaP; conditions: DEFB1 (hBD-1) induction 24 h
Protocol: as §1, §2, §3, §4

[7] = test system: DU145; assay: Pan-caspase detection (FAM-VAD-FMK, confocal), DU145; conditions: DEFB1 (hBD-1) induction 24 h
Protocol: as §1, §2, §3, §4

[8] = test system: LNCaP; assay: Membrane integrity AO/EtBr dual staining, LNCaP; conditions: hBD-1 induction 48 h
Protocol: (§9) Acridine orange (AO)/ethidium bromide (EtBr) dual staining was performed to identify changes in cell membrane integrity, as well as apoptotic cells by staining the condensed chromatin. AO stains viable cells as well as early apoptotic cells, whereas EtBr stains late stage apoptotic cells that have lost membrane permeability. Briefly, cells were seeded into 2 chamber culture slides (BD Falcon, USA). […] In order to determine the effect of PAX2 inhibition on membrane integrity, separate culture slides containing DU145, PC3 and LNCaP were treated with PAX2 siRNA and incubated for 4 days. […] Fluorescence was viewed by a Zeiss LSM 5 Pascal Vario 2 Laser Scanning Confocal Microscope (Carl Zeiss Jena, Germany). […] Slides were analyzed under 40× magnification and digital images were stored as uncompressed TIFF files and exported into Photoshop CS software (Adobe Systems, San Jose, Calif.) for image processing and hard copy presentation. […]
(§10) Fluorescence was viewed by a Zeiss LSM 5 Pascal Vario 2 Laser Scanning Confocal Microscope (Carl Zeiss). […] Slides were analyzed under 40× magnification and digital images were stored as uncompressed TIFF files and exported into Photoshop CS software (Adobe Systems) for image processing and hard copy presentation. […]

[9] = test system: PC3/AR+; assay: MTT cell viability assay, PC3/AR+; conditions: PC3 with ectopic AR expression; hBD-1 induced
Protocol: as §5

[10] = test system: DU145; assay: Membrane integrity AO/EtBr dual staining, DU145
Protocol: as §9, §10

[11] = test system: DU145; assay: Phase contrast microscopy of cell growth, DU145; conditions: DEFB1 induction 48 h
Protocol: as §6, §7, §8

[12] = test system: PC3; assay: Membrane integrity AO/EtBr dual staining, PC3
Protocol: as §9, §10

[13] = test system: DU145; assay: Flow cytometry Annexin V-FITC/PI, DU145
Protocol: The remaining attached cells were harvested by trypsinization and combined with the detached cells and PBS. The cells were then pelleted at 4° C. (500×g) for 5 min, washed twice in PBS, and resuspended in 100 μl of 1× Annexin binding buffer ([…]) containing 5 μl of Annexin V-FITC and 5 μl of PI. The cells were incubated at RT for 15 min in the dark, then diluted with 400 μl of 1× Annexin binding buffer and analyzed by FACscan (Becton Dickinson, San Jose, Calif.). All reactions were performed three times.
PC3 and DU145 cells transfected with the hBD-1 expression system were grown in 60-mm dishes and induced for 12, 24, and 48 h with 10 μM Pon A. The cells were harvested and analyzed by flow cytometry as described in Example 1.

B1: DEFB1: human beta defensin-1 (SEQ ID NO:63), expressed in cells from Ponasterone A inducible pIND/DEFB1 construct (protein, listed as Homo sapiens)
chain: MRTSYLLLFTLCLLLSEMASGGNFLTGLGHRSDHYNCVSSGGQCLYSACPIFTKIQGTCYRGKAKCCK
caspase activity (green FAM-VAD-FMK staining) [1]: green staining
number of apoptotic cells (annexin V/PI, lower and upper right quadrants) ([2]; DEFB1 (hBD-1) induction 12 h): 10%
number of apoptotic cells (annexin V/PI, lower and upper right quadrants) ([2]; DEFB1 (hBD-1) induction 24 h): 20%
effect on cell viability [3]: no significant effect
cell number [4]: significant reduction in cell number
cell proliferation [5]: no effect on cell proliferation
caspase activity (green FAM-VAD-FMK staining) [6]: no green staining
caspase activity (green FAM-VAD-FMK staining) [7]: green staining
membrane integrity (AO/EtBr staining) [8]: no observable alterations to membrane integrity
hBD-1 cytotoxicity, PC3/AR+ compared with PC3 [9]: no difference
membrane integrity (AO/EtBr staining) ([10]; DEFB1 (hBD-1) induction 24 h): accumulation of EtBr in the cytoplasm
membrane integrity (AO/EtBr staining) ([10]; DEFB1 (hBD-1) induction 48 h): possessed condensed nuclei and appeared yellow
cell number [11]: significant reduction in cell number
membrane integrity (AO/EtBr staining) ([12]; DEFB1 (hBD-1) induction 24 h): accumulation of EtBr in the cytoplasm
membrane integrity (AO/EtBr staining) ([12]; DEFB1 (hBD-1) induction 48 h): possessed condensed nuclei and appeared yellow
number of apoptotic cells (annexin V/PI, lower and upper right quadrants) ([13]; DEFB1 (hBD-1) induction 12 h): 12%
number of apoptotic cells (annexin V/PI, lower and upper right quadrants) ([13]; DEFB1 (hBD-1) induction 24 h): 34%
number of apoptotic cells (annexin V/PI, lower and upper right quadrants) ([13]; DEFB1 (hBD-1) induction 48 h): 59%
